Data as given in the supplement of paper PMC9112550, “Optimization of the antimicrobial peptide Bac7 by deep mutational scanning” (BMC Biology, 2022).

Tested on: Escherichia coli TOP10
Test: shrunken log2 fold change of peptide-encoding DNA abundance (4.5 h post-induction vs induction); higher = less antimicrobial activity (less host growth inhibition)
Settings: time post-induction: 4.5 h; library: site-saturation at positions 5, 18, 19, 20
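Further: peptides expressed intracellularly from a pBAD plasmid library in pooled LB shake-flask culture, induced with 0.3% L-arabinose, DNA abundance read by NGS, three biological replicates, DESeq2 with apeglm shrinkage.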

| Sequence | shrunken log2 fold change |
| --- | --- |
| RRIRIRPPRLPRPRPRPGPPPRP | 0.221 |
| RRIRLRPPRLPRPRPRPDTHPRP | -0.543 |
| RRIRYRPPRLPRPRPRPCVVPRP | -0.0208 |
| RRIRYRPPRLPRPRPRPQELPRP | -0.00884 |
| RRIRVRPPRLPRPRPRPDPNPRP | -0.231 |
| RRIRNRPPRLPRPRPRPHLPPRP | 0.0211 |
| RRIRMRPPRLPRPRPRPYLYPRP | -0.0828 |
| RRIRWRPPRLPRPRPRPHIDPRP | -0.466 |
| RRIRWRPPRLPRPRPRPESLPRP | 0.412 |
| RRIRMRPPRLPRPRPRPTVVPRP | 0.0159 |
| RRIRQRPPRLPRPRPRPYLFPRP | -0.509 |
| RRIRIRPPRLPRPRPRPRHSPRP | -0.646 |
| RRIRTRPPRLPRPRPRPEMGPRP | -0.0368 |
| RRIRMRPPRLPRPRPRPFPVPRP | -0.175 |
| RRIRSRPPRLPRPRPRPVMCPRP | -0.173 |
| RRIRTRPPRLPRPRPRPTVGPRP | 0.155 |
| RRIRGRPPRLPRPRPRPNADPRP | 2.38 |
| RRIRERPPRLPRPRPRPCWRPRP | 0.27 |
| RRIRMRPPRLPRPRPRPCCCPRP | 0.0604 |
| RRIRDRPPRLPRPRPRPQCNPRP | -0.0196 |
| RRIRHRPPRLPRPRPRPNCGPRP | 0.00696 |
| RRIRARPPRLPRPRPRPIRWPRP | 0.211 |
| RRIRWRPPRLPRPRPRPMAAPRP | 0.318 |
| RRIRHRPPRLPRPRPRPAFQPRP | -0.0477 |
| RRIRCRPPRLPRPRPRPQWNPRP | 0.618 |

| Sequence | shrunken log2 fold change |
| --- | --- |
| RRIRCRPPRLPRPRPRPITFPRP | -0.167 |
| RRIRCRPPRLPRPRPRPVMPPRP | -0.139 |
| RRIRPRPPRLPRPRPRPLIMPRP | -0.131 |
| RRIRTRPPRLPRPRPRPKSIPRP | -0.194 |
| RRIRCRPPRLPRPRPRPIRGPRP | 0.0532 |
| RRIRLRPPRLPRPRPRPSKRPRP | -0.646 |
| RRIRWRPPRLPRPRPRPIFTPRP | -0.173 |
| RRIRNRPPRLPRPRPRPNQYPRP | -0.712 |
| RRIRGRPPRLPRPRPRPGMKPRP | 0.484 |
| RRIRMRPPRLPRPRPRPIHRPRP | -0.154 |
| RRIRDRPPRLPRPRPRPTQPPRP | 0.0164 |
| RRIRRRPPRLPRPRPRPLKKPRP | 0.169 |
| RRIRTRPPRLPRPRPRPCQTPRP | -0.0283 |
| RRIRVRPPRLPRPRPRPRYVPRP | -0.218 |
| RRIRGRPPRLPRPRPRPVNVPRP | 0.0488 |
| RRIRDRPPRLPRPRPRPDLIPRP | 0.126 |
| RRIRTRPPRLPRPRPRPARQPRP | 0.263 |
| RRIRGRPPRLPRPRPRPSKKPRP | 0.609 |
| RRIRTRPPRLPRPRPRPDDGPRP | 0.02 |
| RRIRHRPPRLPRPRPRPAREPRP | 0.256 |
| RRIRPRPPRLPRPRPRPDNNPRP | -0.512 |
| RRIRHRPPRLPRPRPRPTFIPRP | -0.114 |
| RRIRIRPPRLPRPRPRPCTYPRP | -0.0592 |
| RRIRPRPPRLPRPRPRPFSIPRP | -0.164 |
| RRIRIRPPRLPRPRPRPSDSPRP | -0.0385 |

| Sequence | shrunken log2 fold change |
| --- | --- |
| RRIRDRPPRLPRPRPRPIWIPRP | 0.0877 |
| RRIRLRPPRLPRPRPRPFDLPRP | -0.0989 |
| RRIRRRPPRLPRPRPRPRNRPRP | -0.0263 |
| RRIRWRPPRLPRPRPRPHGEPRP | 0.135 |
| RRIRPRPPRLPRPRPRPSDIPRP | -0.417 |
| RRIRIRPPRLPRPRPRPITHPRP | -0.329 |
| RRIRHRPPRLPRPRPRPDEYPRP | -0.00149 |
| RRIRKRPPRLPRPRPRPEPNPRP | 0.737 |
| RRIRNRPPRLPRPRPRPPHVPRP | 0.147 |
| RRIRIRPPRLPRPRPRPHMPPRP | -1.11 |
| RRIRHRPPRLPRPRPRPNNRPRP | -0.329 |
| RRIRMRPPRLPRPRPRPETNPRP | 2.42 |
| RRIRERPPRLPRPRPRPQFPPRP | -0.253 |
| RRIRRRPPRLPRPRPRPINKPRP | -0.431 |
| RRIRPRPPRLPRPRPRPCHFPRP | -0.265 |
| RRIRMRPPRLPRPRPRPTGCPRP | 0.588 |
| RRIRSRPPRLPRPRPRPYKPPRP | -0.195 |
| RRIRDRPPRLPRPRPRPCWYPRP | -0.369 |
| RRIRYRPPRLPRPRPRPTGQPRP | 0.0557 |
| RRIRYRPPRLPRPRPRPELHPRP | -0.143 |
| RRIRFRPPRLPRPRPRPKTIPRP | -0.223 |
| RRIRFRPPRLPRPRPRPMMEPRP | -0.426 |
| RRIRWRPPRLPRPRPRPQRGPRP | 0.115 |
| RRIRCRPPRLPRPRPRPNYGPRP | -0.297 |
| RRIRHRPPRLPRPRPRPEWHPRP | 0.0223 |

| Sequence | shrunken log2 fold change |
| --- | --- |
| RRIRERPPRLPRPRPRPHFFPRP | -0.154 |
| RRIRARPPRLPRPRPRPFWIPRP | -0.0619 |
| RRIRCRPPRLPRPRPRPAPKPRP | 1.02 |
| RRIRKRPPRLPRPRPRPHMDPRP | 0.0185 |
| RRIRNRPPRLPRPRPRPACPPRP | 0.307 |
| RRIRKRPPRLPRPRPRPLPQPRP | 0.729 |
| RRIRDRPPRLPRPRPRPELLPRP | 0.011 |
| RRIRFRPPRLPRPRPRPYWCPRP | -0.399 |
| RRIRCRPPRLPRPRPRPPVKPRP | -0.00107 |
| RRIRYRPPRLPRPRPRPKETPRP | -0.00674 |
| RRIRRRPPRLPRPRPRPWWPPRP | 0.0939 |
| RRIRMRPPRLPRPRPRPRWSPRP | 0.803 |
| RRIRCRPPRLPRPRPRPDLTPRP | -0.275 |
| RRIRIRPPRLPRPRPRPREKPRP | 0.111 |
| RRIRVRPPRLPRPRPRPWTWPRP | -0.135 |
| RRIRQRPPRLPRPRPRPSFLPRP | -0.355 |
| RRIRPRPPRLPRPRPRPPCMPRP | -0.165 |
| RRIRPRPPRLPRPRPRPGKWPRP | 0.118 |
| RRIRQRPPRLPRPRPRPMGVPRP | -0.00411 |
| RRIRRRPPRLPRPRPRPDFGPRP | 0.0803 |
| RRIRQRPPRLPRPRPRPAWFPRP | 0.162 |
| RRIRERPPRLPRPRPRPCCPPRP | -0.159 |
| RRIRLRPPRLPRPRPRPKNFPRP | 0.492 |
| RRIRLRPPRLPRPRPRPCTMPRP | -0.152 |
| RRIRNRPPRLPRPRPRPNQAPRP | -0.0207 |

| Sequence | shrunken log2 fold change |
| --- | --- |
| RRIRFRPPRLPRPRPRPSCVPRP | -0.443 |
| RRIRGRPPRLPRPRPRPSWNPRP | 0.285 |
| RRIRSRPPRLPRPRPRPPAVPRP | 0.711 |
| RRIRERPPRLPRPRPRPNFHPRP | -0.382 |
| RRIRVRPPRLPRPRPRPYCEPRP | -0.0433 |
| RRIRLRPPRLPRPRPRPSIDPRP | -0.191 |
| RRIRMRPPRLPRPRPRPVMIPRP | 0.021 |
| RRIRPRPPRLPRPRPRPANPPRP | 0.13 |
| RRIRRRPPRLPRPRPRPVHFPRP | -0.278 |
| RRIRSRPPRLPRPRPRPMVLPRP | 0.114 |
| RRIRHRPPRLPRPRPRPLIRPRP | -0.217 |
| RRIRVRPPRLPRPRPRPKNFPRP | 0.0772 |
| RRIRHRPPRLPRPRPRPQGRPRP | 0.027 |
| RRIRWRPPRLPRPRPRPVADPRP | 1.07 |
| RRIRSRPPRLPRPRPRPCRMPRP | -0.102 |
| RRIRYRPPRLPRPRPRPVGLPRP | 0.158 |
| RRIRSRPPRLPRPRPRPDMYPRP | 0.00612 |
| RRIRPRPPRLPRPRPRPHCAPRP | 0.228 |
| RRIRWRPPRLPRPRPRPWIEPRP | 0.0929 |
| RRIRTRPPRLPRPRPRPVHCPRP | 0.0307 |
| RRIRQRPPRLPRPRPRPYISPRP | -0.716 |
| RRIRGRPPRLPRPRPRPSNRPRP | 0.113 |
| RRIRNRPPRLPRPRPRPFTQPRP | -0.348 |
| RRIRARPPRLPRPRPRPIRQPRP | -0.00194 |
| RRIRVRPPRLPRPRPRPKMTPRP | -0.0628 |

| Sequence | shrunken log2 fold change |
| --- | --- |
| RRIRHRPPRLPRPRPRPLHCPRP | -0.519 |
| RRIRVRPPRLPRPRPRPFMRPRP | 0.184 |
| RRIRGRPPRLPRPRPRPTIGPRP | 0.589 |
| RRIRGRPPRLPRPRPRPFWDPRP | 0.322 |
| RRIRCRPPRLPRPRPRPDLCPRP | -0.047 |
| RRIRKRPPRLPRPRPRPIYTPRP | -0.0648 |
| RRIRLRPPRLPRPRPRPFDGPRP | -0.00197 |
| RRIRMRPPRLPRPRPRPYHEPRP | -0.391 |
| RRIRHRPPRLPRPRPRPLMFPRP | -0.236 |
| RRIRWRPPRLPRPRPRPKHFPRP | -0.0487 |
| RRIRWRPPRLPRPRPRPWCVPRP | -0.032 |
| RRIRHRPPRLPRPRPRPMSTPRP | -0.12 |
| RRIRGRPPRLPRPRPRPRKKPRP | 0.774 |
| RRIRERPPRLPRPRPRPSANPRP | -0.35 |
| RRIRLRPPRLPRPRPRPHPKPRP | -0.0255 |
| RRIRSRPPRLPRPRPRPHHLPRP | -0.903 |
| RRIRTRPPRLPRPRPRPLEGPRP | -0.0217 |
| RRIRCRPPRLPRPRPRPVSMPRP | -0.0967 |
| RRIRMRPPRLPRPRPRPPMIPRP | -0.0431 |
| RRIRNRPPRLPRPRPRPSFFPRP | -0.367 |
| RRIRWRPPRLPRPRPRPDVQPRP | 0.0431 |
| RRIRDRPPRLPRPRPRPGDTPRP | -0.11 |
| RRIRWRPPRLPRPRPRPDMSPRP | -0.121 |
| RRIRVRPPRLPRPRPRPVGFPRP | 0.158 |
| RRIRWRPPRLPRPRPRPGGPPRP | 0.367 |
